From patent US20250049894A1, “TREATMENT OF NUDT2 MUTATION” (UNIVERSITÉ DE GENÈVE, priority 2021, published 2025) come the findings set out here.

Common to all, as to assay type: biochemical
The subject of one assay is Ap4A-RNA. In words: In vitro Ap4A-RNA decapping assay (cap-labelled RNA, thin-layer chromatography). To be noted: recombinant protein 250 nM to 750 nM, 37° C., 30 min, TLC. The method, then: Briefly, using the Ap4A mixture (ATP and Ap4A) or Ap4A instead of ATP for in vitro transcription by MEGAshortscript™ T7 Transcription Kit (Life technologies; Cat. No. AM1354), we produced a 50 nt RNA. Template is the same as making 50 nt RNA for MEFs transfection. Note that if the mixture is used, this nucleotide mixture (ATP and Ap4A) still has all the components (lysine, inorganic pyrophosphatase etc) added during the Ap4A synthesis. In vitro transcription reaction was carried out at 37° C. for at least 4 h in a 20 μL reaction containing 6 pmol DNA template, 2 μL 10× reaction buffer, 2 μL of nucleotides (75 mM CTP, 75 mM UTP, 75 mM GTP), 2 μL of ATP/Ap4A mixture that we produced above, and 2 μL T7 enzyme mix (MEGAshortscript™ Kit, Life technologies, Cat. No. AM1354). After that, 1 μL TURBO DNase was added and incubated at 37° C. for 15 min to remove the DNA template. Unincorporated nucleotides were removed from the RNA preparation by Microspin G-25 Column (GE Healthcare, Cat. No. 27-5325-01), and the process was repeated twice. The radioactively labelled RNA was separated by 10% urea gel. […]
Decapping reaction products were resolved by PEI-cellulose TLC plates (Merk, Cat. No. 1057250001) and developed in 0.45 M (NH4)2SO4 in a glass chamber at room temperature. […] When required, signals were quantified by ImageQuantTL.

The test system of another assay is m^7G-RNA. The assay can be described thus: In vitro m7G-RNA decapping assay (cap-labelled RNA, thin-layer chromatography). To be noted: recombinant protein 250 nM to 750 nM, 37° C., 30 min, TLC.
The nature of assay [1]: Ap4A hydrolysis assay (32P-labelled Ap4A, thin-layer chromatography). Particulars: 750 nM recombinant human NUDT2 or Nuclease P1 0.5 and 1 unit, TLC. The method, then:
To prepare radioactive Ap4A, we incubated 60 μCi of radioactive α-^32P-ATP (Perkin Elmer, Cat. no. BLU003X250UC; 75 fmol in 20 ul or 3.75 nM concentration) with 1 μM recombinant human Lys-tRNA synthetase (G540Y mutant) at 37° C. overnight in a 20 μl solution [100 mM Tris-HCl, pH 8.0, 10 mM MgCl2, 0.1 mM ZnCl2, 1 mM Lysine and 0.1 units inorganic pyrophosphatase (Sigma-Aldrich, Cat. no. I1643)].
We resolved the reaction products using thin-layer chromatography, using PEI-cellulose TLC plates (Merk, Cat. No. 1057250001) and developing it in 0.45 M (NH4)2SO4 using a glass chamber at room temperature. In addition to the ATP already present in the reaction, we see the presence of Ap4A (FIG. 9D). From this Ap4A mix (ATP and Ap4A), we obtained purified radioactive Ap4A (FIG. 9E) by HPLC (purification service kindly provided by Hartmann Analytic, Germany). For some experiments (FIG. 9F-G) we used this Ap4A mix (ATP and Ap4A). However, for most experiments (FIG. 2, FIG. 9E) the purified radioactive Ap4A was used.
For hydrolysis assays with Ap4A (AppppA, in bold is 32P), reactions were conducted as above, but the RNA was replaced with appropriate amount of HPLC-purified Ap4A. Hydrolysis assays were conducted with 750 nM of recombinant human NUDT2 or with Nuclease P1 (0.5 unit and 1 unit). NUDT2 hydrolyzes Ap4A (AppppA, in bold is 32P) into α-^32P-AMP and α-^32P-ATP (FIG. 2D).

B1: NUDT12: recombinant untagged full-length human NUDT12 (protein, UniProt Q9BQG2 1-462, looked up)
chain: MSSVKRSLKQEIVTQFHCSAAEGDIAKLTGILSHSPSLLNETSENGWTALMYAARNGHPEIVQFLLEKGCDRSIVNKSRQTALDIAVFWGYKHIANLLATAKGGKKPWFLTNEVEECENYFSKTLLDRKSEKRNNSDWLLAKESHPATVFILFSDLNPLVTLGGNKESFQQPEVRLCQLNYTDIKDYLAQPEKITLIFLGVELEIKDKLLNYAGEVPREEEDGLVAWFALGIDPIAAEEFKQRHENCYFLHPPMPALLQLKEKEAGVVAQARSVLAWHSRYKFCPTCGNATKIEEGGYKRLCLKEDCPSLNGVHNTSYPRVDPVVIMQVIHPDGTKCLLGRQKRFPPGMFTCLAGFIEPGETIEDAVRREVEEESGVKVGHVQYVACQPWPMPSSLMIGCLALAVSTEIKVDKNEIEDARWFTREQVLDVLTKGKQQAFFVPPSRAIAHQLIKHWIRINPNL
modifications: full-length
For B1, the Ap4A-RNA decapping activity entry with Ap4A-RNA is “only NUDT2 has Ap4A-RNA decapping activity”.

B2: 6×His-SUMO-tagged human NUDT2: recombinant full-length human NUDT2 with the larger 6×-His-SUMO tag (protein, UniProt P50583 1-147, looked up)
chain: MALRACGLIIFRRCLIPKVDNNAIEFLLLQASDGIHHWTPPKGHVEPGEDDLETALRETQEEAGIEAGQLTIIEGFKRELNYVARNKPKTVIYWLAEVKDYDVEIRLSHEHQAYRWLGLEEACQLAQFKEMKAALQEGHQFLCSIEA
modifications: full-length 6xHis-SUMO tag
notes: recombinant full-length human NUDT2 with the larger 6×-His-SUMO tag
Turning to B2, the m7G-RNA decapping activity entry in the assay on m^7G-RNA is listed as “poorly active”.

B3: nuclease P1: nuclease used to hydrolyze RNAs prior to mass spectrometry (protein, UniProt P24289 1-270, looked up)
Nuclease P1: WGALGHATVAYVAQHYVSPEAASWAQGILGSSSSSYLASIASWADEYRLTSAGKWSASLHFIDAEDNPPTNCNVDYERDCGSSGCSISAIANYTQRVSDSSLSSENHAEALRFLVHFIGDMTQPLHDEAYAVGGNKINVTFDGYHDNLHSDWDTYMPQKLIGGHALSDAESWAKTLVQNIESGNYTAQAIGWIKGDNISEPITTATRWASDANALVCTVVMPHGAAALQTGDLYPTYYDSVIDTIELQIAKGGYRLANWINEIHGSEIAK
Take B3: in assay [1], the “Hydrolysis of Ap4A” value is recorded as “able to efficiently hydrolyse Ap4A”.

B4: NUDT2: recombinant full-length human NUDT2, Nudix hydrolase for Ap4A (protein)
chain: ALRACGLIIFRRHLIPKMDNSTIEFLLLQASDGIHHWTPPKGHVDPGENDLETALRETREETGIEASQLTIIEGFRRELNYVARQKPKTVIYWLAEVKDYNVEIRLSQEHQAYRWLGLEEACQLAQFKEMKATLQEGHQFLCSTPA
With B4, the m7G-RNA decapping activity result with m^7G-RNA is “can decap m^7G-RNAs”. In addition, the “Hydrolysis of Ap4A” value in assay [1] is “mostly asymmetrically hydrolyzed into ATP (Appp) and AMP (pA)”. Further, the Ap4A-RNA decapping activity entry in the assay with Ap4A-RNA is given as “only NUDT2 has Ap4A-RNA decapping activity”.
